Reference: PMC4601640 (2015)

T1: CK2-phosphorylated human full-length p50^Cdc37 (human, UniProt Q16543 1-378, phosphoserine at 13 (shown by Western blot))
T1 chain: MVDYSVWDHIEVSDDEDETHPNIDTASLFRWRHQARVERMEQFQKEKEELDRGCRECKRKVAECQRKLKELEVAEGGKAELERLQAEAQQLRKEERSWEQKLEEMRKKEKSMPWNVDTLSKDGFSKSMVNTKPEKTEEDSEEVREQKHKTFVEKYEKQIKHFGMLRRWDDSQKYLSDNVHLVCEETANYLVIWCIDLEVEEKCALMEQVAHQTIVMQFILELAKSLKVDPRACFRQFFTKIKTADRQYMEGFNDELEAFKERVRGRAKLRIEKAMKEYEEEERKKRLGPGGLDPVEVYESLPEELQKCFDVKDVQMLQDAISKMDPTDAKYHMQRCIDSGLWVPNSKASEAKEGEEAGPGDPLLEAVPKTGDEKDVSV


Tests used:
[1] = molecular target: T1, CK2-phosphorylated human full-length …; experiment: ITC; phosphorylated Cdc37
[2] = molecular target: T1, CK2-phosphorylated human full-length …; experiment: ITC; both phosphorylated

Kd [1] | Kd [2] | Binder
1400 nM |  | human full-length Hsp90β (natural protein) not shown
 | 1900 nM | CK2-phosphorylated human full-length Hsp90β (natural protein, phosphoserine at 255 (shown by Western blot); Ser226 named as a CK2 site, its phosphorylation could not be verified) not shown
